From the supplement of paper PMC9170038 come the findings set out here.

The subject of this series is MS2 coat protein. Kind of series: apparent KD of MS2 coat protein; designed switch direction (-1 OFF switch, 1 ON switch): -1; higher = weaker reporter binding. The method in brief: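 Designed RNA switches with common flanks were made on Illumina chips by stalled E. coli RNA polymerase. Titration with SNAP-549-labelled MS2 coat protein doubled from 0.7 or 1.5 nM up to 3 µM. Apparent KD is each design's median over clusters after curve-fitting normalised fluorescence.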

Where [1] appears, read: Eterna round: R95, input ligand: microRNA oligo, concentration not stated.
[2] abbreviates: Eterna round: R95, input ligand: FMN 200 uM.
Setting [3] is: Eterna round: R95, input ligand: none.
Setting [4] is: input ligand: microRNA oligo, concentration not stated.

As to “UAAGUUCAGUAGGAUAUUCAGCAGCUGCUGCUAGGAGAAGGGCUGACAUGAGGAUCACCCAUGUGAGUGUCCGU [Eternabot (L2) Solution 55] (Eterna round: R97, puzzle: Exclusion 6)”, the “apparent KD of MS2 coat protein” value by setting is: (input ligand: FMN 200 uM) 0.0922 µM; (input ligand: none) 0.0321 µM.

For the sequence “UAAUAAAGUGUGAGGAUAUGCUGGUCCUUGGAUCAGCAGAAGGCACAUGAGGAUCACCCAUGUAAUAUAUAAAU [Mat - Exclusion 4 - JL Mod - D55] (puzzle: Brourd's mod of Exclusion 4)”, under setting [1], the “apparent KD of MS2 coat protein” value is 0.0704 µM.

For “UAAUAAAGUGUGAGGAUAUGCUGGUCCUUGGAUCAGCAGAAGGCACAUGAGGAUCACCCAUGUAAUAUAUAUAU [Mat - Exclusion 4 - JL Mod - D54] (puzzle: Brourd's mod of Exclusion 4)”, under setting [1], the “apparent KD of MS2 coat protein” value turned out to be 0.0624 µM.

Regarding “UAAUAACAAGCAGGAUCCUACAUGAGGAUCACCCAUGUGCUCGUCUUAUAAAGUACUAUCACGAAAGUGAUAGUACU [Mat - Sensor v3 - turn-off var 1 - Eli Mod - D73] (puzzle: Sensor v3, turn-off variant 1)”, the “apparent KD of MS2 coat protein” value was found to be 0.208 µM under setting [2], 0.0719 µM under setting [1] and 0.25 µM under setting [3].

Take “UAAUACAUCUAUGGGAGUAACAUGAGGAUCACCCAUGUAUGUCUUGUUUUUUGUUCGUCAUAGACUUUCUGAUCAGU [JR_SV3TOV1_Sub029] (puzzle: Sensor v3, turn-off variant 1)”: the “apparent KD of MS2 coat protein” value is, setting by setting: under setting [2], 0.0479 µM; under setting [1], 0.175 µM; under setting [3], 0.0522 µM.

For “UAAUGUGCGAGAGGAUAUCGUGUACAAAGUACACGAGAAGGCUUCACAUGAGGAUCACCCAUGUACCGAGGUGAAACACCUUGG [Omei Exc(NG)1 Bv1] (Eterna round: R96, puzzle: Exclusion NG 1)”, the “apparent KD of MS2 coat protein” value reads like this: (input ligand: FMN 200 uM) 0.355 µM; under setting [4], 0.171 µM; (input ligand: none) 0.22 µM.

For the sequence “UAAUUAAAUGUAAGGAUAUGGCAAUGCGGUGGCAGUUAGAAGGUACAUGAGGAUCACCCAUGUGUGUAUCGUGA [Eternabot (L1) Solution 93] (Eterna round: R97, puzzle: Brourd's mod of Exclusion 4)”, the “apparent KD of MS2 coat protein” value was 0.233 µM (input ligand: FMN 200 uM) and 0.248 µM (input ligand: none).

For “UAAUUAAAUGUAGGAUAUCUGCACGAUUAGUGCAGAGAAGGACAUGAGGAUCACCCAUGUAGAUCAAAUUAAAUUAAUUUAAUU [ENG1/5-D1] (Eterna round: R96, puzzle: Exclusion NG 1)”, the “apparent KD of MS2 coat protein” value by setting is: (input ligand: FMN 200 uM) 0.0922 µM; under setting [4], 0.0245 µM; (input ligand: none) 0.0338 µM.

For “UAAUUAAGUGUGAGGAUAUGCUGGUCCUUGGAUCAGCAGAAGGCACAUGAGGAUCACCCAUGUAAAUUAUUUAU [Mat - Exclusion 4 - JL Mod - D60] (Eterna round: R96, puzzle: Brourd's mod of Exclusion 4)”, the “apparent KD of MS2 coat protein” value (input ligand: FMN 200 uM) came out at 0.332 µM, the “apparent KD of MS2 coat protein” value under setting [4] stood at 0.054 µM and the “apparent KD of MS2 coat protein” value (input ligand: none) was found to be 0.0765 µM.

As to “UAAUUAAGUGUGAGGAUAUGCUGGUCCUUGGAUCAGCAGAAGGCACAUGAGGAUCACCCAUGUAAAUUAUUUAU [Mat - Exclusion 4 - JL Mod - D60] (puzzle: Brourd's mod of Exclusion 4)”, the “apparent KD of MS2 coat protein” value under setting [1] was 0.0732 µM.

As for “UAAUUAAUUAAUUAAUAAUACAUGAGGAUCACCCAUGUAGAUCCUACAUACAAGCUUUGUAGCUCGUCUUAUAAUUA [Stov1/3-A1] (Eterna round: R97, puzzle: Sensor, turn-off variant 1)”, the “apparent KD of MS2 coat protein” value reads like this: (input ligand: FMN 200 uM) 0.214 µM; (input ligand: none) 0.337 µM.

As for “UAAUUAGACUCAGGAUAUUCGAAGAGAAGAGAGGAAGAAGGGAGGUGACAUGAGGAUCACCCAUGUAUGUGUUGUGUCCAUGUG [Exclusion NG 1 S1] (Eterna round: R96, puzzle: Exclusion NG 1)”, the “apparent KD of MS2 coat protein” value runs as follows: (input ligand: FMN 200 uM) 0.326 µM; under setting [4], 0.553 µM; (input ligand: none) 0.617 µM.

As for “UAAUUAGCAAGUAGAUCCGACAUGAGGAUCACCCAUGUUAUCUGAAAGAACGCAGAAUAACUGUGAGCUCGUCUAAA [Sensor-V1 #1] (Eterna round: R97, puzzle: Sensor, turn-off variant 1)”, the “apparent KD of MS2 coat protein” value (input ligand: FMN 200 uM) came out at 0.315 µM and the “apparent KD of MS2 coat protein” value (input ligand: none) turned out to be 0.333 µM.

In the case of “UAAUUGAUUAAUAAAUUAUACAUGAGGAUCACCCAUGUAGAUCCUACGUGCCAUUUAAGUAGCUCGUCUUAUUAUUA [Sensor-V1 #64] (Eterna round: R97, puzzle: Sensor, turn-off variant 1)”, the “apparent KD of MS2 coat protein” value was determined as 0.142 µM (input ligand: FMN 200 uM) and 0.228 µM (input ligand: none).

For the sequence “UAAUUGAUUAAUAGAUUAUACAUGAGGAUCACCCAUGUAGGUCCUACGUGCCAUUUAAGUAGCUCGUCUUAUUAUUA [Sensor-V1 #66] (Eterna round: R97, puzzle: Sensor, turn-off variant 1)”, the “apparent KD of MS2 coat protein” value by setting is: (input ligand: FMN 200 uM) 0.0402 µM; (input ligand: none) 0.0465 µM.

Regarding “UAAUUGUGAGGAUAUUCGUUGUUCUCGGAGACGAGAAUAACGGAGAAGGCACAUGAGGAUCACCCAUGUUCCUU [Mat - Exclusion 4 - JL Mod - D13] (Eterna round: R97, puzzle: Exclusion 4)”, the “apparent KD of MS2 coat protein” value amounted to 0.0984 µM (input ligand: FMN 200 uM) and 0.018 µM (input ligand: none).

Regarding “UACAAGCUUUAAAGAUCCUACAUGAGGAUCACCCAUGUGCUCGUCUUAUAACGUACUGUGACGAAAGUCACGGUACG [JL TOV1 3.20] (Eterna round: R97, puzzle: Sensor, turn-off variant 1)”, the “apparent KD of MS2 coat protein” value runs as follows: (input ligand: FMN 200 uM) 0.2 µM; (input ligand: none) 0.246 µM.

As for “UACAAGCUUUUAAGAUCCCACAUGAGGAUCACCCAUGUGCUCGUCUUGUAACGUACUGUGACGAAAGUCACGGUACG [JL TOV1 3.23] (Eterna round: R97, puzzle: Sensor, turn-off variant 1)”, the “apparent KD of MS2 coat protein” value (input ligand: FMN 200 uM) was 0.0267 µM and the “apparent KD of MS2 coat protein” value (input ligand: none) is 0.0275 µM.

Turning to “UACACUGCAUGAGGAUCAAACAUGAGGAUCACCCAUGUAUAGCAAGCUUUUUGCGCGUCUUAUAAUUAUGUAGUGUA [Electric Eye 19 - Jieux - Sensor, turn-off variant 1] (Eterna round: R97, puzzle: Sensor, turn-off variant 1)”, the “apparent KD of MS2 coat protein” value was determined as 0.0158 µM (input ligand: FMN 200 uM) and 0.0154 µM (input ligand: none).

With “UACACUGCAUGAGGAUCAAACAUGAGGAUCACCCAUGUGUAGCAAGCUUUUUGCUCGUCUUAUAAUUAUGUAGUGUA [Electric Eye 11 - Jieux - Sensor, turn-off variant 1] (Eterna round: R97, puzzle: Sensor, turn-off variant 1)”, the “apparent KD of MS2 coat protein” value reads like this: (input ligand: FMN 200 uM) 0.014 µM; (input ligand: none) 0.0121 µM.

As for “UACAGACAUGAGGAUCACCCAUGUUAGGAUAUGCAGAACUCUACUCACGUGGCGUUUAGCAGAAGGAAUACGGG [Eternabot (L1) Solution 68] (Eterna round: R97, puzzle: Exclusion 1)”, the “apparent KD of MS2 coat protein” value reads like this: (input ligand: FMN 200 uM) 0.122 µM; (input ligand: none) 0.0746 µM.

As for “UACAGUCAUCCUUAUUGUUACAUGAGGAUCACCCAUGUUAGUAUAAUUAAGUUAUGUAAGUUUGUUGUUCGUUUUAU [JR_STOV1_v2_Sub075] (Eterna round: R97, puzzle: Sensor, turn-off variant 1)”, the “apparent KD of MS2 coat protein” value is, setting by setting: (input ligand: FMN 200 uM) 0.0819 µM; (input ligand: none) 0.0846 µM.

With “UACAUGAGGAUCACCCAUGUCGGGUAAACGAAGGUUACUCAAGAGGAUAUAAAACCGAAAGGGUUUUAGAAGGCUUUUCCUCGA [Eternabot solution 27] (Eterna round: R96, puzzle: Exclusion NG 3)”, the “apparent KD of MS2 coat protein” value is, setting by setting: (input ligand: FMN 200 uM) 0.0923 µM; under setting [4], 0.046 µM; (input ligand: none) 0.0867 µM.

In the case of “UACAUGAGGAUCACCCAUGUUUUAUCAUGUGUAAUAAUAAUGUAGGAUAUGUAUUAUUUAUUUUAACAGAAGGACAAUAAUAAA [JMF's solution 1] (Eterna round: R96, puzzle: Exclusion NG 3)”, the “apparent KD of MS2 coat protein” value (input ligand: FMN 200 uM) was 0.279 µM, the “apparent KD of MS2 coat protein” value under setting [4] was 0.265 µM and the “apparent KD of MS2 coat protein” value (input ligand: none) came out at 0.362 µM.

Turning to “UACAUGAGGAUCACCCAUGUUUUGUCGUGUAUGGUACCCGUCUAGGAUAUCGUGUUAUUGGACCACGAGAAGGAGAGUAUCAAU [Excl-NG3-LRO02] (Eterna round: R96, puzzle: Exclusion NG 3)”, the “apparent KD of MS2 coat protein” value is, setting by setting: (input ligand: FMN 200 uM) 0.0426 µM; under setting [4], 0.0203 µM; (input ligand: none) 0.0317 µM.

Regarding “UACAUGAGGAUCACCCAUGUUUUGUCGUGUAUGGUAUUUAUCUAGGAUAUCAAUCUAUUUAAUUAUGAGAAGGAGAAUAUUAAU [JMF's solution 53] (Eterna round: R96, puzzle: Exclusion NG 3)”, the “apparent KD of MS2 coat protein” value (input ligand: FMN 200 uM) worked out at 0.0372 µM, the “apparent KD of MS2 coat protein” value under setting [4] came to 0.0325 µM and the “apparent KD of MS2 coat protein” value (input ligand: none) amounted to 0.0393 µM.

“UACAUGAGGAUCACCCAUGUUUUGUCGUGUAUGGUAUUUAUCUAGGAUAUCAAUCUAUUUAGUUAUGAGAAGGAGAAUAUUAAU [JMF's solution 54] (Eterna round: R96, puzzle: Exclusion NG 3)”: the “apparent KD of MS2 coat protein” value runs as follows: (input ligand: FMN 200 uM) 0.0391 µM; under setting [4], 0.0299 µM; (input ligand: none) 0.0378 µM.

Take “UACAUGAGGAUCACCCAUGUUUUGUCGUGUAUGGUAUUUAUCUAGGAUAUCAAUGAAUUUAUUUAUGAGAAGGAGAAUAUUAAU [JMF's solution 37] (Eterna round: R96, puzzle: Exclusion NG 3)”: under setting [4], the “apparent KD of MS2 coat protein” value stood at 0.0307 µM.

With “UACAUGAGGAUCACCCAUGUUUUGUCGUGUAUGGUAUUUAUCUAGGAUAUCAAUUGAUUUAAUUAUGAGAAGGAGAAUAUUAAU [JMF's solution 61] (Eterna round: R96, puzzle: Exclusion NG 3)”, the “apparent KD of MS2 coat protein” value under setting [4] stood at 0.0293 µM.
